Patent US6482605

Target: EGF receptor (endogenous, in PC12 cell lysate)

B1: histidine-tagged PTP20 wild-type (6 histidine residues at the N-terminus), tetracycline-controlled expression in PC12 cells (protein)
chain: MHHHHHHSRQSDLVRSFLEQQEARDHRKGAILAREFSDIKARSVAWKTEGVCSTKAGSQQGNSKKNRYKDVVPYDETRVILSLLQEEGHGDYINANFIRGTDGSQAYIATQGPLPHTLLDFWRLVWEFGIKVILMACQETENGRRKCERYWAQEREPLQAGPFCITLTKETALTSDITLRTLQVTFQKESRPVHQLQYMSWPDHGVPSSSDHILTMVEEARCLQGLGPGPLCVHCSAGCGRTGVLCAVDYVRQLLLTQTIPPNFSLFEVVLEMRKQRPAAVQTEEQYRFLYHTVAQLFSRTLQNNSPLYQNLKENRAPICKDSSSLRTSSALPATSRPLGGVLRSISVPGPPTLPMADTYAVVQKRGASGSTGPGTRAPNSTDTPIYSQVAPRIQRPVSHTENAQGTTALGRVPADENPSGPDAYEEVTDGAQTGGLGFNLRIGRPKGPRDPPAEWTRV
In the case of B1, the “tyrosine phosphorylation of EGF receptor upon EGF stimulation (precipitation, anti-phosphotyrosine blot)” value is reported as “Overexpression of PTP20 wt resulted in dramatic dephosphorylation of EGF receptor”.
